Experimental data from US20230416364A1 (Bristol-Myers Squibb, published 2023).

B1: mouse IL-2 (ligand, UniProt P04351 21-169, looked up)
chain: APTSSSTSSSTAEAQQQQQQQQQQQQHLEQLLMDLQELLSRMENYRNLKLPRMLTFKFYLPKQATELKDLQCLEDELGPLRHVLDLTQSKSFQLEDAENFISNIRVTVVKLKGSDNTFECQFDDESATVVDFLRRWIAFCQSIISTSPQ

How the values were obtained:
[1] = target: fully mCD25 modified anti-mPD-1 antibody 4H2, (4H2 mG1 D265A KK CD25.b)2; assay: cell-based or functional assay
[2] = target: hemi-mCD25 modified anti-mPD-1 antibody 4H2 (4H2 mG1 D265A KK CD25.b+4H2 mG1 D265A blank); assay: cell-based or functional assay
[3] = target: T1, human CD25 (IL-2R alpha) on HEK-Blue IL-2 reporter cells (human, UniProt P01589 22-272); assay: cell-based or functional assay
T1 sequence: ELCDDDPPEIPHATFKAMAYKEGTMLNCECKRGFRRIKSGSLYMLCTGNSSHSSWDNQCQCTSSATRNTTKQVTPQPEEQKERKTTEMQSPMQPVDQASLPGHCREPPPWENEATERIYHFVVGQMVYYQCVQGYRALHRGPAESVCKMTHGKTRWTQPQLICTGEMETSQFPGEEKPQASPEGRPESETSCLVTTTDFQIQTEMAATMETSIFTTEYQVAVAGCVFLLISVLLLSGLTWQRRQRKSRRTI

mouse IL-2 = target: B1; assay: SPR, Biacore T200, 37° C., fusion captured by anti-mouse IgG on CM4 chip, mIL-2 as analyte
Description: Truncations of mCD25 are presented at FIG. 3A.
Unless otherwise indicated, binding kinetics were determined with a BIACORE® SPR surface plasmon resonance spectrometer (Biacore AB, Uppsala, Sweden). […] The assay temperature was 37° C. and the running buffer was HEPES buffered saline pH 7.4 supplemented with 0.05% (v/v) Tween-20 and 1 g/L BSA. Purified mPD1−mCD25 variants were captured on a Biacore™ CM4 chip with immobilized anti-mouse IgG polyclonal capture antibody. […] Between cycles, the capture surface was regenerated for three minutes with 10 mM Glycine pH 1.7. Double-referenced sensorgrams were fitted to a 1:1 Langmuir binding model with mass transport to determine equilibrium dissociation constants (KD), as well as association (kₐ) and dissociation (kd) rate constants where appropriate.

Binder: B1
- EC50 of mIL-2 (read off the curve) with 260 pM fusion; SEAP reporter (ABS620), CD25- mPD-1+ HEK-Blue IL-2 cells [1]: ~200 pM
- EC50 of mIL-2 (read off the curve) with 2.6 nM fusion; SEAP reporter (ABS620), CD25- mPD-1+ HEK-Blue IL-2 cells [1]: ~0.1 nM
- EC50 of mIL-2 (read off the curve) with 280 pM fusion; SEAP reporter (ABS620), CD25- mPD-1+ HEK-Blue IL-2 cells [2]: ~300 pM
- EC50 of mIL-2 (read off the curve) with 2.8 nM fusion; SEAP reporter (ABS620), CD25- mPD-1+ HEK-Blue IL-2 cells [2]: ~0.1 nM
- EC50 (read off the curve); SEAP reporter (ABS620), HEK-Blue IL-2 CD25+ cells [3]: ~0.05 nM

B2: anti-mPD-1 mAb 4H2 fused to mCD25 variant a (full-length mCD25 ECD) (other)
heavy: QVQLKESGPGLVQPSQTLSLTCTVSGFSLTSYNVHWVRQPPGKGLEWMGGMRYNEDTSYNSALKSRLSISRDTSKNQVFLKMNSLQTDDTGTYYCTRDAVYGGYGGWFAYWGQGTLVTVSSAKTTPPSVYPLAPGSAAQTNSMVTLGCLVKGYFPEPVTVTWNSGSLSSGVHTFPAVLESDLYTLSSSVTVPSSTWPSETVTCNVAHPASSTKVDKKIVPRDCGCKPCICTVPEVSSVFIFPPKPKDVLTITLTPKVTCVVVAISKDDPEVQFSWFVDDVEVHTAQTQPREEQFNSTFRSVSELPIMHQDWLNGKEFKCRVNSAAFPAPIEKTISKTKGRPKAPQVYTIPPPKKQMAKDKVSLTCMITDFFPEDITVEWQWNGQPAENYKNTQPIMKTDGSYFVYSKLNVQKSNWEAGNTFTCSVLHEGLHNHHTEKSLSHSPGGGGSGGGGSGGGGSELCLYDPPEVPNATFKALSYKNGTILNCECKRGFRRLKELVYMRCLGNSWSSNCQCTSNSHDKSRKQVTAQLEHQKEQQTTTDMQKPTQSMHQENLTGHCREPPPWKHEDSKRIYHFVEGQSVHYECIPGYKALQRGPAISICKMKCGKTGWTQPQLTCVDEREHHRFLASEESQGSRNSSPESETSCPITTTDFPQPTETTAMTETFVLTMEYK
light: DTVLTQSPALAVSLGQRVTISCKASETVSSSMYSYIHWYQQKPGQQPKLLIYRASNLESGVPARFSGSGSGTDFTLTIDPVEADDVATYFCQQSWNPWTFGGGTKLELKRADAAPTVSIFPPSSEQLTSGGASVVCFLNNFYPKDINVKWKIDGSERQNGVLNSWTDQDSKDSTYSMSSTLTLTKDEYERHNSYTCEATHKTSTSPIVKSFNRNEC
notes: also called 4H2-mCD25 variant a; mPD1-mCD25 variant a
- Kd (mouse IL-2): 14 nM

B3: anti-mPD-1 mAb 4H2 fused to mCD25 variant b (other)
heavy: QVQLKESGPGLVQPSQTLSLTCTVSGFSLTSYNVHWVRQPPGKGLEWMGGMRYNEDTSYNSALKSRLSISRDTSKNQVFLKMNSLQTDDTGTYYCTRDAVYGGYGGWFAYWGQGTLVTVSSAKTTPPSVYPLAPGSAAQTNSMVTLGCLVKGYFPEPVTVTWNSGSLSSGVHTFPAVLESDLYTLSSSVTVPSSTWPSETVTCNVAHPASSTKVDKKIVPRDCGCKPCICTVPEVSSVFIFPPKPKDVLTITLTPKVTCVVVAISKDDPEVQFSWFVDDVEVHTAQTQPREEQFNSTFRSVSELPIMHQDWLNGKEFKCRVNSAAFPAPIEKTISKTKGRPKAPQVYTIPPPKKQMAKDKVSLTCMITDFFPEDITVEWQWNGQPAENYKNTQPIMKTDGSYFVYSKLNVQKSNWEAGNTFTCSVLHEGLHNHHTEKSLSHSPGGGGSGGGGSGGGGSELCLYDPPEVPNATFKALSYKNGTILNCECKRGFRRLKELVYMRCLGNSWSSNCQCTSNSHDKSRKQVTAQLEHQKEQQTTTDMQKPTQSMHQENLTGHCREPPPWKHEDSKRIYHFVEGQSVHYECIPGYKALQRGPAISICKMKCGKTGWTQPQLTCVDEREHHRFLASEESQGSRNSSPESETSCPITTTDFPQP
light: DTVLTQSPALAVSLGQRVTISCKASETVSSSMYSYIHWYQQKPGQQPKLLIYRASNLESGVPARFSGSGSGTDFTLTIDPVEADDVATYFCQQSWNPWTFGGGTKLELKRADAAPTVSIFPPSSEQLTSGGASVVCFLNNFYPKDINVKWKIDGSERQNGVLNSWTDQDSKDSTYSMSSTLTLTKDEYERHNSYTCEATHKTSTSPIVKSFNRNEC
notes: also called 4H2-mCD25 variant b; mPD1-mCD25 variant b
- Kd (mouse IL-2): 14 nM
